The values below come from the Human Domainome abundance scans (Beltran et al. 2025).

± gives the uncertainty stated by the source.

To fix the notation:
B1: POU domain, class 4, transcription factor 1, residues 266 to 347; numbered along this chain, Q01851 (parent)
chain: RELEAFAERFKQRRIKLGVTQADVGSALANLKIPGVGSLSQSTICRFESLTLSHNNMIALKPILQAWLEEAEGAQREKMNKP

In the data set the parent is B1. The data set can be described thus: abundance fitness (aPCA) (normalised: wild type 0, dead -1); higher = more abundant; growth selection in yeast, the domain comes from the species named. The following applies: Homo sapiens.
On to RELEAFAERFKQRRIKLGVTQADVGSALANLEIPGVGSLSQSTICRFESLTLSHNNMIALKPILQAWLEEAEGAQREKMNKP [K32E], for which the abundance fitness worked out at 0.016 ± 0.13. In the case of RELEAFAERFKQRRIKLGVTQADVGSALANLFIPGVGSLSQSTICRFESLTLSHNNMIALKPILQAWLEEAEGAQREKMNKP [K32F], the abundance fitness was found to be 0.031 ± 0.26. For RELEAFAERFKQRRIKLGVTQADVGSALANLAIPGVGSLSQSTICRFESLTLSHNNMIALKPILQAWLEEAEGAQREKMNKP [K32A] the value was -0.003 ± 0.078; for RELEAFAERFKQRRIKLGVTQADVGSALANLLIPGVGSLSQSTICRFESLTLSHNNMIALKPILQAWLEEAEGAQREKMNKP [K32L], -0.105 ± 0.064.

With RELEAFAERFKQRRIKLGVTQADVGSALANLMIPGVGSLSQSTICRFESLTLSHNNMIALKPILQAWLEEAEGAQREKMNKP [K32M], the abundance fitness is 0.018 ± 0.089. The result for RELEAFAERFKQRRIKLGVTQADVGSALANLGIPGVGSLSQSTICRFESLTLSHNNMIALKPILQAWLEEAEGAQREKMNKP [K32G] reads -0.101 ± 0.054. The result for RELEAFAERFKQRRIKLGVTQADVGSALANLDIPGVGSLSQSTICRFESLTLSHNNMIALKPILQAWLEEAEGAQREKMNKP [K32D] reads 0.022 ± 0.17; that for RELEAFAERFKQRRIKLGVTQADVGSALANLCIPGVGSLSQSTICRFESLTLSHNNMIALKPILQAWLEEAEGAQREKMNKP [K32C], -0.116 ± 0.094. The result for RELEAFAERFKQRRIKLGVTQADVGSALANLIIPGVGSLSQSTICRFESLTLSHNNMIALKPILQAWLEEAEGAQREKMNKP [K32I] reads -0.165 ± 0.21; that for RELEAFAERFKQRRIKLGVTQADVGSALANKKIPGVGSLSQSTICRFESLTLSHNNMIALKPILQAWLEEAEGAQREKMNKP [L31K], 0.038 ± 0.039; that for RELEAFAERFKQRRIKLGVTQADVGSALANRKIPGVGSLSQSTICRFESLTLSHNNMIALKPILQAWLEEAEGAQREKMNKP [L31R], -0.005 ± 0.024. In the case of RELEAFAERFKQRRIKLGVTQADVGSALANCKIPGVGSLSQSTICRFESLTLSHNNMIALKPILQAWLEEAEGAQREKMNKP [L31C], the abundance fitness is -0.057 ± 0.037. RELEAFAERFKQRRIKLGVTQADVGSALANGKIPGVGSLSQSTICRFESLTLSHNNMIALKPILQAWLEEAEGAQREKMNKP [L31G]: the abundance fitness was -0.223 ± 0.024. For RELEAFAERFKQRRIKLGVTQADVGSALANAKIPGVGSLSQSTICRFESLTLSHNNMIALKPILQAWLEEAEGAQREKMNKP [L31A] the value was -0.059 ± 0.029. With RELEAFAERFKQRRIKLGVTQADVGSALANTKIPGVGSLSQSTICRFESLTLSHNNMIALKPILQAWLEEAEGAQREKMNKP [L31T], the abundance fitness came to 0.051 ± 0.035. As to RELEAFAERFKQRRIKLGVTQADVGSALANQKIPGVGSLSQSTICRFESLTLSHNNMIALKPILQAWLEEAEGAQREKMNKP [L31Q], the abundance fitness is -0.04 ± 0.038. For RELEAFAERFKQRRIKLGVTQADVGSALANVKIPGVGSLSQSTICRFESLTLSHNNMIALKPILQAWLEEAEGAQREKMNKP [L31V], the abundance fitness is -0.006 ± 0.025. The result for RELEAFAERFKQRRIKLGVTQADVGSALANMKIPGVGSLSQSTICRFESLTLSHNNMIALKPILQAWLEEAEGAQREKMNKP [L31M] reads 0.003 ± 0.035; that for RELEAFAERFKQRRIKLGVTQADVGSALANSKIPGVGSLSQSTICRFESLTLSHNNMIALKPILQAWLEEAEGAQREKMNKP [L31S], -0.066 ± 0.031; that for RELEAFAERFKQRRIKLGVTQADVGSALANIKIPGVGSLSQSTICRFESLTLSHNNMIALKPILQAWLEEAEGAQREKMNKP [L31I], -0.028 ± 0.052. For RELEAFAERFKQRRIKLGVTQADVGSALANDKIPGVGSLSQSTICRFESLTLSHNNMIALKPILQAWLEEAEGAQREKMNKP [L31D] the value was -0.152 ± 0.046. For the variant RELEAFAERFKQRRIKLGVTQADVGSALANPKIPGVGSLSQSTICRFESLTLSHNNMIALKPILQAWLEEAEGAQREKMNKP [L31P], the abundance fitness is -0.26 ± 0.045. In the case of RELEAFAERFKQRRIKLGVTQADVGSALANHKIPGVGSLSQSTICRFESLTLSHNNMIALKPILQAWLEEAEGAQREKMNKP [L31H], the abundance fitness was -0.014 ± 0.058. The result for RELEAFAERFKQRRIKLGVTQADVGSALANNKIPGVGSLSQSTICRFESLTLSHNNMIALKPILQAWLEEAEGAQREKMNKP [L31N] reads -0.168 ± 0.061. For RELEAFAERFKQRRIKLGVTQADVGSALAYLKIPGVGSLSQSTICRFESLTLSHNNMIALKPILQAWLEEAEGAQREKMNKP [N30Y] the value was 0.033 ± 0.34; for RELEAFAERFKQRRIKLGVTQADVGSALAQLKIPGVGSLSQSTICRFESLTLSHNNMIALKPILQAWLEEAEGAQREKMNKP [N30Q], 0.026 ± 0.071. With RELEAFAERFKQRRIKLGVTQADVGSALASLKIPGVGSLSQSTICRFESLTLSHNNMIALKPILQAWLEEAEGAQREKMNKP [N30S], the abundance fitness was determined as 0.091 ± 0.08. Turning to RELEAFAERFKQRRIKLGVTQADVGSALAPLKIPGVGSLSQSTICRFESLTLSHNNMIALKPILQAWLEEAEGAQREKMNKP [N30P], the abundance fitness came to 0.06 ± 0.1.

For RELEAFAERFKQRRIKLGVTQADVGSALALLKIPGVGSLSQSTICRFESLTLSHNNMIALKPILQAWLEEAEGAQREKMNKP [N30L], the abundance fitness is -0.084 ± 0.088. The result for RELEAFAERFKQRRIKLGVTQADVGSALARLKIPGVGSLSQSTICRFESLTLSHNNMIALKPILQAWLEEAEGAQREKMNKP [N30R] reads -0.063 ± 0.054; that for RELEAFAERFKQRRIKLGVTQADVGSALATLKIPGVGSLSQSTICRFESLTLSHNNMIALKPILQAWLEEAEGAQREKMNKP [N30T], -0.046 ± 0.077.

As to RELEAFAERFKQRRIKLGVTQADVGSALAWLKIPGVGSLSQSTICRFESLTLSHNNMIALKPILQAWLEEAEGAQREKMNKP [N30W], the abundance fitness was -0.144 ± 0.064. For RELEAFAERFKQRRIKLGVTQADVGSALAVLKIPGVGSLSQSTICRFESLTLSHNNMIALKPILQAWLEEAEGAQREKMNKP [N30V] the value was -0.233 ± 0.061; for RELEAFAERFKQRRIKLGVTQADVGSALAMLKIPGVGSLSQSTICRFESLTLSHNNMIALKPILQAWLEEAEGAQREKMNKP [N30M], -0.104 ± 0.09.
